Laboratory results taken from the supplement of paper PMC10567573.

B1: TPD52L1 (parent)
chain: ISKKFGDMSYSIRHSISMPAMRNS

Variants of: B1
Test: protein stability index of a GFP-peptide fusion (GPS, HEK-293T) (PSI 1-6); higher = more stable
Conditions: c terminus: a fixed tail appended
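Further: lentivirally expressed fusions sorted by FACS into six bins by GFP to DsRed ratio, PSI derived from sequencing read proportions per bin multiplied by bin number.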

Point of comparison: ISKKFGDMSYSIRSSISMPAMRNS, protein stability index 1.8. Against it:
- ISKKFGDMSRSIRHSISMPAMRNS — higher, 2.41
- ISKKFGDMSHSIRHSISMPAMRNS — higher, 2.69
- ISKKFGDMSKSIRHSISMPAMRNS — higher, 2.57
- ISKKFGDMSTSIRHSISMPAMRNS — higher, 2.72
- ISKKFGDMSLSIRHSISMPAMRNS — higher, 1.88
- ISKKFGDMSASIRHSISMPAMRNS — higher, 2.91
- ISKKFGDMSISIRHSISMPAMRNS — higher, 2.23
- ISKKFGDMSPSIRHSISMPAMRNS — higher, 2.97
- ISKKFGDMSFSIRHSISMPAMRNS — higher, 2.01
- ISKKFGDMSESIRHSISMPAMRNS — higher, 2.88
- ISKKFGDMSQSIRHSISMPAMRNS — higher, 2.76
- ISKKFGDMSSSIRHSISMPAMRNS — higher, 2.84
- ISKKFGDMSMSIRHSISMPAMRNS — higher, 2.37
- ISKKFGDMSWSIRHSISMPAMRNS — higher, 1.93
- ISKKFGDMSCSIRHSISMPAMRNS — higher, 2.17
- ISKKFGDMSGSIRHSISMPAMRNS — higher, 3.06
- ISKKFGDMSVSIRHSISMPAMRNS — higher, 2.94
- ISKKFGDMSYSMRHSISMPAMRNS — higher, 2.44
- ISKKFGDMSYSVRHSISMPAMRNS — higher, 2.28
- ISKKFGDMSYSSRHSISMPAMRNS — higher, 2.41
- ISKKFGDMSYSARHSISMPAMRNS — higher, 2.55
- ISKKFGDMSYSCRHSISMPAMRNS — lower, 1.54
- ISKKFGDMSYSHRHSISMPAMRNS — higher, 2.6
- ISKKFGDMSYSLRHSISMPAMRNS — higher, 2.71
- ISKKFGDMSYSDRHSISMPAMRNS — higher, 3.07
- ISKKFGDMSYSGRHSISMPAMRNS — higher, 2.4
- ISKKFGDMSYSYRHSISMPAMRNS — higher, 2.37
- ISKKFGDMSYSRRHSISMPAMRNS — higher, 2.86
- ISKKFGDMSYSPRHSISMPAMRNS — higher, 2.98
- ISKKFGDMSYSERHSISMPAMRNS — higher, 3.36
- ISKKFGDMSYSFRHSISMPAMRNS — higher, 2.63
- ISKKFGDMSYSKRHSISMPAMRNS — higher, 2.56
- ISKKFGDMSYSQRHSISMPAMRNS — higher, 2.27
- ISKKFGDMSYSTRHSISMPAMRNS — higher, 2.83
- ISKKFGDMSYSWRHSISMPAMRNS — lower, 1.57
- ISKKFGDMSYSNRHSISMPAMRNS — higher, 3.1
- ISKKFGDMSYSIRNSISMPAMRNS — higher, 2.38
- ISKKFGDMSYSIRQSISMPAMRNS — higher, 2.28
- ISKKFGDMSYSIRISISMPAMRNS — higher, 2.73
- ISKKFGDMSYSIRDSISMPAMRNS — higher, 3.35
- ISKKFGDMSYSIRPSISMPAMRNS — higher, 2.56
- ISKKFGDMSYSIRLSISMPAMRNS — higher, 3.05
- ISKKFGDMSYSIRGSISMPAMRNS — higher, 1.88
- ISKKFGDMSYSIRVSISMPAMRNS — higher, 4.3
- ISKKFGDMSYSIRYSISMPAMRNS — lower, 1.7
- ISKKFGDMSYSIRKSISMPAMRNS — higher, 2.69
- ISKKFGDMSYSIRFSISMPAMRNS — higher, 2.49
- ISKKFGDMSYSIRMSISMPAMRNS — higher, 2.44
- ISKKFGDMSYSIRCSISMPAMRNS — higher, 2.73
- ISKKFGDMSYSIRASISMPAMRNS — higher, 2.15
- ISKKFGDMSYSIRRSISMPAMRNS — higher, 3.72
- ISKKFGDMSYSIRESISMPAMRNS — higher, 2.33
- ISKKFGDMSYSIRTSISMPAMRNS — higher, 1.9
- ISKKFGDMSYSIEHSISMPAMRNS — higher, 2.48
- ISKKFGDMSYSIAHSISMPAMRNS — higher, 2.21
- ISKKFGDMSYSIVHSISMPAMRNS — higher, 2.6
- ISKKFGDMSYSILHSISMPAMRNS — lower, 1.77
- ISKKFGDMSYSIQHSISMPAMRNS — higher, 2.05
- ISKKFGDMSYSIFHSISMPAMRNS — higher, 2.01
- ISKKFGDMSYSICHSISMPAMRNS — lower, 1.78
- ISKKFGDMSYSIPHSISMPAMRNS — higher, 2.67
- ISKKFGDMSYSINHSISMPAMRNS — higher, 2.1
- ISKKFGDMSYSIIHSISMPAMRNS — lower, 1.64
- ISKKFGDMSYSIHHSISMPAMRNS — higher, 2.37
- ISKKFGDMSYSIWHSISMPAMRNS — higher, 2.29
- ISKKFGDMSYSIKHSISMPAMRNS — higher, 2.14
- ISKKFGDMSYSIYHSISMPAMRNS — lower, 1.45
- ISKKFGDMSYSIDHSISMPAMRNS — higher, 2.49
- ISKKFGDMSYSITHSISMPAMRNS — higher, 2.01
- ISKKFGDMSYSIMHSISMPAMRNS — higher, 1.89
- ISKKFGDMSYSISHSISMPAMRNS — higher, 2.02
- ISKKFGDMSYSIGHSISMPAMRNS — higher, 2.45
- ISKKFGDMSYSIRHCISMPAMRNS — higher, 2.23
- ISKKFGDMSYSIRHAISMPAMRNS — higher, 2.23
- ISKKFGDMSYRIRHSISMPAMRNS — higher, 2.24
- ISKKFGDMSYTIRHSISMPAMRNS — higher, 2.38
- ISKKFGDMSYWIRHSISMPAMRNS — lower, 1.67
- ISKKFGDMSYEIRHSISMPAMRNS — higher, 1.97
- ISKKFGDMSYCIRHSISMPAMRNS — higher, 1.88
- ISKKFGDMSYVIRHSISMPAMRNS — higher, 2.49
- ISKKFGDMSYYIRHSISMPAMRNS — higher, 2.06
- ISKKFGDMSYIIRHSISMPAMRNS — higher, 2.03
- ISKKFGDMSYMIRHSISMPAMRNS — higher, 2.03
- ISKKFGDMSYGIRHSISMPAMRNS — higher, 2.52
- ISKKFGDMSYQIRHSISMPAMRNS — higher, 2.22
- ISKKFGDMSYHIRHSISMPAMRNS — higher, 2.41
- ISKKFGDMSYNIRHSISMPAMRNS — higher, 2.74
- ISKKFGDMSYFIRHSISMPAMRNS — higher, 1.91
- ISKKFGDMSYPIRHSISMPAMRNS — higher, 2.58
- ISKKFGDMSYDIRHSISMPAMRNS — higher, 2.68
- ISKKFGDMSYKIRHSISMPAMRNS — higher, 1.99
- ISKKFGDMSYLIRHSISMPAMRNS — higher, 2.75
- ISKKFGDMSYAIRHSISMPAMRNS — higher, 2.51
